Assay results from publication PMC6698841.
Where two headings read alike, the source gives them in different places.

B1: FcγR 2aR, P12318 34-317 (receptor)
chain: QAAAPPKAVLKLEPPWINVLQEDSVTLTCQGARSPESDSIQWFHNGNLIPTHTQPSYRFKANNNDSGEYTCQTGQTSLSDPVHLTVLSEWLVLQTPHLEFQEGETIMLRCHSWKDKPLVKVTFFQNGKSQKFSRLDPTFSIPQANHSHSGDYHCTGNIGYTLFSSKPVTITVQVPSMGSSSPMG
modifications: not checked

Experiments:
[1] = target: Variant 1051 (control; L234A/L235A on both heavy chains) (human); assay: SPR; ProteOn XPR36, 25 °C; 10 mM HEPES, 150 mM NaCl, 3.4 mM EDTA, 0.05% Tween 20, pH 7.4; trastuzumab variants captured (approx. 500 RU) on amine-coupled recombinant HER-2 (GLM chip); FcγRs injected as analyte, five concentrations in 3-fold dilution; Equilibrium Fit model, mean of two or three runs
[2] = target: Variant 791 (trastuzumab with heterodimerising CH3 mutations only, no CH2 mutations) (human); assay: as above
[3] = target: Control Rituximab v1261 (anti-CD20 rituximab with heterodimerising CH3 mutations, no CH2 mutations) (human); assay: SPR; ProteOn XPR36, 25 °C; 10 mM HEPES, 150 mM NaCl, 3.4 mM EDTA, 0.05% Tween 20, pH 7.4; rituximab variants captured on amine-coupled goat anti-human Fc; FcγRs injected as analyte, five concentrations in 3-fold dilution; Equilibrium Fit model; ratios against homodimeric trastuzumab WT
[4] = target: Control Rituximab v1261 (anti-CD20 rituximab with heterodimerising CH3 mutations, no CH2 mutations) (human); assay: as above; remark: listed apart in the source
[5] = target: Variant 1051 (control; L234A/L235A on both heavy chains) (human); assay: SPR; ProteOn XPR36, 25 °C; 10 mM HEPES, 150 mM NaCl, 3.4 mM EDTA, 0.05% Tween 20, pH 7.4; trastuzumab variants captured (approx. 500 RU) on amine-coupled recombinant HER-2 (GLM chip); FcγRs injected as analyte, five concentrations in 3-fold dilution; Equilibrium Fit model, mean of two or three runs; remark: listed apart in the source
[6] = target: Variant 791 (trastuzumab with heterodimerising CH3 mutations only, no CH2 mutations) (human); assay: as above; remark: listed apart in the source

Chain of Control Rituximab v1261 (anti-CD20 rituximab with heterodimerising CH3 mutations, no CH2 mutations) (human) (heavy, as listed by the source, chain 1 of 2): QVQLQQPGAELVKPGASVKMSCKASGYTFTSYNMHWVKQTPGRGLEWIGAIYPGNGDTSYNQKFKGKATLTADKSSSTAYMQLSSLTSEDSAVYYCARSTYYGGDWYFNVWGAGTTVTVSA
Chain of Control Rituximab v1261 (anti-CD20 rituximab with heterodimerising CH3 mutations, no CH2 mutations) (human) (light, as listed by the source, chain 2 of 2): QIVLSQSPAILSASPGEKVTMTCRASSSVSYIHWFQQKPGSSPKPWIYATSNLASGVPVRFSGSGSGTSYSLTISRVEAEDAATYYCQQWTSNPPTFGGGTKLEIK

| Molecule | Kamut/KaWT (WT: homodimeric trastuzumab) [1] | Kamut/KaWT (WT: homodimeric trastuzumab) [2] | Kamut/KaWT (WT: homodimeric trastuzumab) [3] | Kamut/KaWT (WT: homodimeric trastuzumab) [4] | Kamut/KaWT (WT: homodimeric trastuzumab) [5] | Kamut/KaWT (WT: homodimeric trastuzumab) [6] |
| --- | --- | --- | --- | --- | --- | --- |
| FcγR 1a (CD64) (from UniProt P12314 16-374) (receptor) | 0.01 | – | – | – | – | – |
| FcγR 2aH (from UniProt P12318 34-317) (receptor) | 0.06 | 1.7 | 1.9 | – | – | – |
| FcγR 2b (from UniProt P31994 43-310) (receptor) | 0.52 | – | 1.9 | – | – | – |
| FcγR 3aF (from UniProt P08637 17-254) (receptor) | 0.29 | – | 1.4 | – | – | – |
| B1 | – | – | – | 1.5 | 0.06 | 1.7 |
